From patent US20180224449A1

Tests used:
[1] = molecular target: biotinylated Opr86 extracellular loop synthetic peptide; test: solution biopanning on biotinylated Opr86 loop peptide in Bushnell-Haas pH 8.5 with 1% Jet-A, three rounds; share of clones
[2] = molecular target: biotinylated OprF1 synthetic peptide (P. aeruginosa); test: pooled monoclonal phages pulled down on biotinylated OprF1 in Bushnell-Haas with 1% Jet-A; unamplified eluate, share of 30 sequenced clones

| Substance | % Abundance [1] [%] | relative percent abundance [2] [%] |
| --- | --- | --- |
| M13 phage displaying OPP1 (PRIRKSH) (peptide) | 3 | – |
| M13 phage displaying OPP2 (MHNLNLL) (peptide) | 2 | – |
| M13 phage displaying OPP3 (LPSTIHR) (peptide) | 2 | – |
| M13 phage displaying OPP4 (LRPLMNR) (peptide) | 3 | – |
| M13 phage displaying OPP5 (IITMKRR) (peptide) | 3 | – |
| M13 phage displaying OPP6 (RKKSRIR) (peptide) | 2 | – |
| M13 phage displaying the PPKINIM peptide | – | 3 |
